One may read the EC50 as the concentration that produces a half-maximal response. Usually EC50 (read off the curve) stands for the concentration giving half of the maximal effect. A higher EC50 (read off the curve) goes with a need for much substance.

Experiment [1] addresses T1, Zanolimumab mutant FR1.
T1 construct: also called Zano FR1
The experiment is described as follows: flow cytometry, % parent (FITC), CHO cells expressing zanolimumab mutant FR1. On the technique in general: A flow cytometer gives signals particle by particle.
Description: (§1) FACS was performed according to standard protocols. Briefly, cells were assayed in PBS with 0.5% BSA and 2 mM EDTA. […] Following this, cells were incubated with a secondary anti-mouse FITC antibody for 30 mins at 4° C. FITC readout was measured by FACS on a benchtop flow cytometer.

Experiment [2] deals with T2, antibodies containing VH4-34 endogenously expressed by cell line OCI-Ly3.
T2 construct: Whole, on cells; also called VH4-34-expressing cell line OCI-Ly3
The experiment can be described thus: flow cytometry, EC50 of % parent (PE), OCI-Ly3 cells endogenously expressing VH4-34.
Description: FACS was performed according to standard protocols. Briefly, cells were assayed in PBS with 0.5% BSA and 2 mM EDTA. Live dead staining was performed with a live dead cell dye for 15 minutes at 4° C. […] Following this, cells were incubated with a secondary PE goat anti-mouse IgG for 30 mins at 4° C. and PE readout was measured.

Experiment [3] has as its target T3, Tabalumab mutant FR1.
T3 construct: also called Taba FR1
The experiment is described as follows: flow cytometry, % parent (FITC), CHO cells expressing tabalumab mutant FR1.
Description: as §1

In the next experiment the target is T4, 3A6 mutant FR1.
T4 construct: also called 3A6 FR1; 3A6-FR1 (VH4-34 FR1 mutant)
The experiment is described as follows: flow cytometry, % parent (FITC), CHO cells expressing 3A6 mutant FR1.

Experiment [4] addresses tabalumab. The experiment can be described thus: flow cytometry, EC50 of % parent (FITC), CHO cells overexpressing surface tabalumab (TABA).
Description: as §1
Experiment [5] deals with T5, 3A6.
T5 construct: also called 3A6 antibody (containing VH4-34 antigen); 3A6 (VH4-34 antigen)
The experiment can be described thus: flow cytometry, EC50 of % parent (FITC), CHO cells overexpressing surface 3A6.
Description: as §1

Experiment [6] deals with T6, zanolimumab.
T6 construct: VH4-34-containing antibody used as the antigen, overexpressed on the surface of CHO cells; also called Zano.hIgG1
The experiment is described as follows: flow cytometry, EC50 of % parent (FITC), CHO cells overexpressing surface zanolimumab (ZANO).
Description: as §1

Experiment [7] addresses T1, Zanolimumab mutant FR1. The experiment is described as follows: flow cytometry, % parent (FITC), CHO cells expressing zanolimumab mutant FR1. This is another data set of the same source.
Description: as §1
Experiment [8] has as its target T6, zanolimumab. The experiment can be described thus: flow cytometry, EC50 of % parent (FITC), CHO cells overexpressing surface zanolimumab (Zano); curve in FIG. 1A reaches only about 45 % parent.
Description: as §1
For experiment [9], the target named is tabalumab. The experiment can be described thus: flow cytometry, EC50 of % parent (FITC), CHO cells overexpressing surface tabalumab (Taba).
Description: as §1
For experiment [10], the target named is T5, 3A6. The experiment is described as follows: flow cytometry, EC50 of % parent (FITC), CHO cells overexpressing surface 3A6. This is another data set of the same source.
Description: as §1
The target in another experiment is T7, IGM-55.5.
T7 construct: Cold agglutinin antibody coated on the plate in the ELISA
The experiment can be described thus: ELISA on plate-coated IGM-55.5 (1 ug/ml), detection with HRP goat anti-mouse IgG. For orientation: In an ELISA, binding on a coated surface is turned into a signal by an enzyme label.

The target of experiment [11] is T6, zanolimumab. The experiment is described as follows: flow cytometry, EC50 of % parent (FITC), CHO cells overexpressing surface zanolimumab (Zano).
Description: (§2) For FACS evaluation, cells were assayed in PBS with 0.5% BSA and 2 mM EDTA. […] Cells were incubated with a secondary anti-mouse FITC antibody for 20 mins at 4° C. FITC readout was measured by FACS.
In experiment [12] the target is tabalumab. The experiment can be described thus: flow cytometry, EC50 of % parent (FITC), CHO cells overexpressing surface tabalumab (Taba). This is another data set of the same source.
Description: as §2
For experiment [13], the target named is T5, 3A6. The experiment can be described thus: flow cytometry, EC50 of % parent (FITC), CHO cells overexpressing surface 3A6. This is another data set of the same source.
Description: as §2
Experiment [14] concerns the target T3, Tabalumab mutant FR1. The experiment is described as follows: flow cytometry, % parent (FITC), CHO cells expressing tabalumab mutant FR1. The source holds these as a separate data set.
Description: as §2
Experiment [15] addresses T1, Zanolimumab mutant FR1. The experiment is described as follows: flow cytometry, % parent (FITC), CHO cells expressing zanolimumab mutant FR1. The source holds these as a separate data set.
Description: as §2

Read-outs that look alike come from different tables or passages of the source.

T5 sequence (VH, as listed by the source, chain 1 of 2): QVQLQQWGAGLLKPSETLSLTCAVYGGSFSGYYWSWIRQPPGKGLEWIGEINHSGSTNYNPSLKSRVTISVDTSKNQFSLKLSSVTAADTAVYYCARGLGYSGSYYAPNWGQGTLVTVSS
T5 sequence (VL, as listed by the source, chain 2 of 2): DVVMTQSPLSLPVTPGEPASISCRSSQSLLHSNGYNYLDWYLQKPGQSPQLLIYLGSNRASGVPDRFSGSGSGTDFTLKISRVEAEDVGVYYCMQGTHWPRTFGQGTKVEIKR
T6 sequence (VH, as listed by the source, chain 1 of 2): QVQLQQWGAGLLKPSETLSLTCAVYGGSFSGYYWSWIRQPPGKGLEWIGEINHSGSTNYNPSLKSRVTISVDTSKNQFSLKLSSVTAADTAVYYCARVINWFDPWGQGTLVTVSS
T6 sequence (VL, as listed by the source, chain 2 of 2): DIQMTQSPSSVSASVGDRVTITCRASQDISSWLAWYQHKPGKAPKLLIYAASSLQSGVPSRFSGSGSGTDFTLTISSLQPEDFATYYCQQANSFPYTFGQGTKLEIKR
T1 sequence (VH, as listed by the source, chain 1 of 2): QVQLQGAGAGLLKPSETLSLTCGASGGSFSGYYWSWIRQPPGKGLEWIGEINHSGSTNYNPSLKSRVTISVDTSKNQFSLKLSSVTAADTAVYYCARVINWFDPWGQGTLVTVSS
tabalumab, sequence (VH, as listed by the source, chain 1 of 2): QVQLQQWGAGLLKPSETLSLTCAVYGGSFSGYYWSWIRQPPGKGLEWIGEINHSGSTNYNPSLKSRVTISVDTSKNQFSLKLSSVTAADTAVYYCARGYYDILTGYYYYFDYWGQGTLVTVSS
tabalumab, sequence (VL, as listed by the source, chain 2 of 2): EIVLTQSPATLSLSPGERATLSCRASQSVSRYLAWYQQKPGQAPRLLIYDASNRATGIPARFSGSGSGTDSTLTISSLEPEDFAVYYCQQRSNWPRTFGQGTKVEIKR
T4 sequence (VH, as listed by the source, chain 1 of 2): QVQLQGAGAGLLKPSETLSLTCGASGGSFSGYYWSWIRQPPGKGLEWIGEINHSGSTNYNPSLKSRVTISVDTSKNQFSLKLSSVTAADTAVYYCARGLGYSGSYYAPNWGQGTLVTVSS
T3 sequence (VH, as listed by the source, chain 1 of 2): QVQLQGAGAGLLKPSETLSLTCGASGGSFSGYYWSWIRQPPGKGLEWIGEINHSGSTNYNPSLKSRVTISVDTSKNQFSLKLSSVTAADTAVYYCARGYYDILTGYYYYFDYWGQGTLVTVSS
Description for 3A6 mutant FR1: as §1
Description for IGM-55.5: Plate was washed 3× with TBS+0.1% Tween 20. […] A secondary antibody (HRP-conjugated goat anti-mouse IgG) was prepared at 1:5000 dilution in blocking buffer and added to the plate with 1 hr incubation RT. TMB ELISA substrate was added and incubated for 15 mins at RT in the dark, before adding the stop solution. The absorbance was read at 450 nm.

B1: D011-6039.IgG2a (antibody, V domains shown)
VH: EVMLVESGGGLVQPGGSLKLSCAASGFTFSSYGMSWVRQTPDKRLELVATINSNGVNTYYPDSVKGRFTISRDNAKNTLYLQMSSLKSEDTAMYYCARVPFDYWGQGTSLTVSS
VL: DIVMTQSPAIMSASLGEKVTMSCRASSSVDYIYWYQQKSDASPKLWIYYTSTLAPGVPARFSGSGSGNSYSLTISSMEGEDAATYYCQQFTSSPWTFGGGTRLEIKR
As to B1, the binding result with Zanolimumab mutant FR1 [1], in the experiment with Tabalumab mutant FR1 [3] and with 3A6 mutant FR1 was “no binding (tested: Log M about -7.2 (about 7e-8 M))” each time. In addition, the EC50 is 0.273 nM in [2], 0.0444 nM in the experiment with tabalumab [4], 8.96 nM in the experiment with 3A6 [5] and 10.4 nM in the experiment with zanolimumab [6].

B2: D011-1E11p.IgG2a (antibody, V domains shown)
VH: EVQLQQSGPELVKPGASMKISCKASGYSFTGSTMNWVKQSPGKNLEWIGLINPYNGGTSYNQKFEGKATLTVDKSSSTAYMELLSLTSVDSAVYYCASRGKNGYDGRDFDCWGQGTSVTVSS
VL: DIVLTQSPLSLPVNIGDQASISCKSTKSLLNSGGFTYLDWYLQKPGQSPQLLIYLVSNRFSGVPDRFSGSGSGTDFTLKISRVEAEDLGVYYCFQSNYFPFTFGSGTKLEIKR
In the case of B2, the binding result with Zanolimumab mutant FR1 [7] is “no binding (tested: Log M about -7.2 (about 7e-8 M))”. Moreover, the EC50 with zanolimumab [8] was determined as 3.49 nM; in the experiment with tabalumab [9] it was 0.0823 nM; with 3A6 [10] it was 1.52 nM.

B3: D011-7016.IgG2a (antibody)
heavy: EVQLVESGPSLVKPSQTLSLICSVTGDSITSGYWNWVRKFPGNKLEYMGYISYSGSAHYNPSLKSRISITRDTSKNQYYLQLNSMTTEDTATYYCASYSFAYWGQGTLVTVSAASTKGPSVFPLAPSSKSTSGGTAALGCLVKDYFPEPVTVSWNSGALTSGVHTFPAVLQSSGLYSLSSVVTVPSSSLGTQTYICNVNHKPSNTKVDKKVEPKSCDKTHTCPPCPAPELLGGPSVFIFPPKIKDVLMISLSPIVTCVVVDVSEDDPDVQISWFVNNVEVHTAQTQTHREDYNSTLRVVSALPIQHQDWMSGKEFKCKVNNKDLPAPIERTISKPKGSVRAPQVYVLPPPEEEMTKKQVTLTCMVTDFMPEDIYVEWTNNGKTELNYKNTEPVLDSDGSYFMYSKLRVEKKNWVERNSYSCSVVHEGLHNHHTTKSFSRTPGK
light: DIVMTQSPATLSVTPGDSVSLSCRANQSIDNNLHWYQQRSHESPRLLINYASQSISGIPSRFSGSGSGTDFTLSISSVETEDFGMYFCQQSYGWPYTFGGGTKLEIKRTVAAPSVFIFPPSDEQLKSGTASVVCLLNNFYPREAKVQWKVDNALQSGNSQESVTEQDSKDSTYSLSSTLTLSKADYEKHKVYACEVTHQGLSSPVTKSFNRGEC
notes: also called [4]
With B3, the “EC50 (read off the curve)” value with IGM-55.5 is roughly 0.0002 nM. For the same molecule, the EC50 with zanolimumab [11] was found to be 0.00926 nM; in [2], 0.0194 nM; with tabalumab [12] it was 0.00558 nM; in the experiment with tabalumab [4] it was 0.0313 nM; in the experiment with 3A6 [13], 0.00751 nM; in the experiment with 3A6 [5], 0.0258 nM. Moreover, the EC50 in the experiment with zanolimumab [6] was 0.0164 nM. Also, the binding result is listed as “no binding (tested: Log M about -7.2 (about 7e-8 M))” with 3A6 mutant FR1, “no binding (tested: Log M about -8.1 (about 8e-9 M))” with Tabalumab mutant FR1 [14] and “no binding (tested: Log M about -8.1 (about 8e-9 M))” with Zanolimumab mutant FR1 [15].

These data come from US20260274993A1 (HUMMINGBIRD BIOSCIENCE PTE, published 2026).
